Reference: the RNAGym collection of RNA variant scans (doi:10.1073/pnas.2313332121)

B1: TPR t1 (parent)
chain: GACCAAUCUGCCCUCAGAGCUCGAGAACAUCUUCGGAUGCAGAGGAGGCAGGCUUCGGUGGCGCGAUAGCGCCAACGUCCUCAACCUCCAAUGCAUCCCACCACAUGAUGAUGCCUGAAGAGCCUUGGUUUUUUG

Variants of: B1
Experiment: polymerase ribozyme fitness, log enrichment relative to wild type (log ratio); higher = more active; in vitro selection for triplet polymerase activity
Procedure, shortened: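 Both subunits of a heterodimeric triplet polymerase ribozyme were given their own mutant library, built by PCR and transcribed. Each library was annealed with a biotinylated primer, the partner subunit and triplets, incubated frozen at −7 °C, and its extended constructs gel-excised, captured on streptavidin beads and amplified by RT-PCR, all in one round done in triplicate. Fitness is the logarithm of genotype enrichment relative to wild-type enrichment, with replicates averaged by inverse-variance weighting. That logarithm is base 2, and Illumina-sequenced genotypes needed ≥10 input reads and ≥1 read per output.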

Point of comparison: C40G C62U U87G, “polymerase ribozyme fitness (log ratio)” value -1.61. Against it:
- C40G G48C G93C — higher, 0.0171
- C40G U92A U109A U116C — lower, -5.03
- C40U G45A — higher, -1.41
- C40U G45U — lower, -2.01
- C40A G117U — lower, -4.5
- C40G G71U G117A — lower, -2.71
- C40G A41C — lower, -3.16
- C40A C114A G135A — lower, -3.46
- C40U C88A C101A A121U — higher, -0.199
- C40U A74G C79G — lower, -2.36
- A41C C56U — higher, -0.143
- A41C C56G — lower, -4.05
- C40U G57A C85A U112A G122C C123A — within 0.2 log units, -1.77
- C40U G60C U96G A118G — higher, -1.31
- C40U A41C C79A U92A — lower, -5.35
- C40U G57U G120C — higher, 0.687
- A41C C82U C94G C97U — lower, -6.09
- C40G A43U — lower, -2.95
- A41C A90G — higher, -0.105
- C40A G42U C56A — lower, -2.35
- A41C C99U — lower, -5.06
- C40G A43U U54G — lower, -2.72
- C40G A43U C73A U126C — lower, -3.57
- C40G G45A — lower, -2.11
- A41C C73G — higher, -1.33
- C40U A118G — higher, -1.24
- C40U G45U U55A C73U — within 0.2 log units, -1.76
- C40U G63C — higher, -0.94
- C40A G61U U109G — lower, -6.14
- C40G C72G C115G C123G G128C — lower, -4.8
- C40U A83C — higher, -0.818
- C40U G52U C88U — higher, -1.18
- C40G U78A — higher, -0.582
- C40U G47C C53U — lower, -3.49
- C40U C70U — higher, -0.997
- A41C G52A A74U C88U — lower, -2.04
- C40U G57U C79A — higher, -1.3
- A41C C86A U106A — higher, -1.11
- C40G C114U — lower, -2.54
- C40U C49A A50G C62U A105G — lower, -4.71
- C40G C70U — within 0.2 log units, -1.65
- C40G G47U G71U — lower, -6.34
- C40G G48U G69U — within 0.2 log units, -1.67
- C40G C62U — within 0.2 log units, -1.8
- C40G A46U — lower, -2.96
- C40G G61A G120A — higher, 0.253
- C40U G60U — higher, -0.21
- C40G U133G — higher, -0.607
- C40A C101U — the same, -1.61
- A41C A46U C70U — lower, -3.44
- A41C G57C A90G C97A — lower, -4.54
- A41C C56U C114A A121G — higher, -1.11
- A41C C85U — lower, -2.37
- C40U C62U C85G — lower, -2.44
- C40U C101U C124A — higher, 1.16
- C40G G71A U78G — lower, -2.94
- C40U G69C — the same, -1.61
- C40A G48A G117C — lower, -5.6
- C40A U92C A118G — lower, -2.05
- C40U C64U C85U A100G U106C U112C — lower, -2.44
- A41C G52C C73G — lower, -2.96
- C40A G48A — lower, -2.24
- C40U G63A C102G C114G G122A — lower, -8.78
- C40A G52U G63U U112A — lower, -2.78
- C40U G42C C53A C104A — lower, -4.78
- C40U G45A U78G U81A — lower, -2.5
- C40G G71U — higher, -1.23
- C40U A90G C123U — higher, 1.26
- C40U G48U G52A A121U — higher, -0.327
- C40A G52A C72U A91G — lower, -4.17
- C40U G61A U78C — higher, -0.104
- C40G C62A C124A — higher, -0.241
- C40U C85A U129G U132C — lower, -5.2
- C40U C49A C73U C98G — lower, -6.1
- C40G C49G G51A C76U — lower, -4.64
- C40G G61U A91U C104U — lower, -3.37
- C40U C98A A121C — lower, -4.03
- C40U G113U U129C — lower, -3.58
- A41C G47C C49U C86A — lower, -2.65
- C40U C53U A121G — higher, 1.58
- C40A G110A U116A — lower, -5.12
- C40A G63C C123U — higher, -0.868
